T1: soluble recombinant human CD39 protein (Homo sapiens, UniProt P49961)
T1 construct: made in house; host or cells: CHO cells
T1 sequence (P49961 with tags, fused parts or gaps): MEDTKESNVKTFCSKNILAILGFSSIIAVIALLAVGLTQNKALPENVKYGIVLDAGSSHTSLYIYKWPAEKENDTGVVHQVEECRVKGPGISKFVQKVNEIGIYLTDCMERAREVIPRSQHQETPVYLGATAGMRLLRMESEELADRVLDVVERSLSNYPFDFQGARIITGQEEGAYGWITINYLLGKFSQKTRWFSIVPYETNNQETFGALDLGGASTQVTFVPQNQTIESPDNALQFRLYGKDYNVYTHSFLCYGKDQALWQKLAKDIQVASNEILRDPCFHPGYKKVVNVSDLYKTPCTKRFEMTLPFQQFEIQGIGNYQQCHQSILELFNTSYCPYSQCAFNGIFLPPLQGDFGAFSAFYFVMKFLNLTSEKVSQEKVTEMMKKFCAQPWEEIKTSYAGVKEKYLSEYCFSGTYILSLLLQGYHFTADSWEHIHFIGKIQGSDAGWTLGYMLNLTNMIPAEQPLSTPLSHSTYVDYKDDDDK


Experiments:
[1] = system: NTPDase1, NTPDase3, NPP1 or mouse NTPDase8; conditions: not specific for CD39; cited from earlier work
[2] = system: CD39 mutants transfected in Hek-293T cells; assay: Epitope mapping: binding to CD39 mutants by flow cytometry; design: species or system human
Procedure: CD39 mutants were generated by PCR. The sequences amplified were run on agarose gel and purified using the Macherey Nagel PCR Clean-Up Gel Extraction kit (reference 740609). The purified PCR products generated for each mutant were then ligated into an expression vector, with the ClonTech InFusion system. The vectors containing the mutated sequences were prepared as Miniprep and sequenced. After sequencing, the vectors containing the mutated sequences were prepared as Midiprep using the Promega PureYield™ Plasmid Midiprep System. HEK293T cells were grown in DMEM medium (Invitrogen), transfected with vectors using Invitrogen's Lipofectamine 2000 and incubated at 37° C. in a CO2 incubator for 48 hours prior to testing for transgene expression. The targeted amino acid mutations in the table 1 below are shown using numbering of SEQ ID NO: 1.
In order to define the epitopes of anti-CD39 antibodies, we designed CD39 mutants defined by substitutions of amino acids exposed at the molecular surface over the surface of CD39. Mutants were transfected in Hek-293T cells, as shown in the table 1, using numbering of SEQ ID NO: 1.
Dose-ranges of I-394 (10-2.5-0.625-0.1563-0.0391-0.0098-0.0024-0.0006 μg/ml) are tested on the 20 generated mutants by flow cytometry. […] Mutant 5 contains amino acid substitutions at residues Q96, N99, E143 and R147.
Mutants were transfected in Hek-293T cells, as shown in the table 1, using numbering of SEQ ID NO: 1. Dose-ranges of antibodies I-394 were tested on the 20 mutants by flow cytometry. […] Mutant 19 includes substitutions at residues R138, M139 and E142. The core epitope of I-394 thus includes one or more (or all of) residues R138, M139 and E142.
Mutants were transfected in Hek-293T cells, as shown in the table 1, using numbering of SEQ ID NO: 1.Dose-ranges of test antibodies (10-2.5-0.625-0.1563-0.0391-0.0098-0.0024-0.0006 μg/ml) are tested on the 20 generated mutants by flow cytometry.

[3] = target: T1, soluble recombinant human CD39 protein; assay: Inhibition of the enzymatic activity of soluble CD39 (Cell Titer Glo); type: biochemical; conditions: result in words; 400 ng/ml sCD39, 20 μM ATP
Procedure: The inhibition by antibodies of the enzymatic activity of soluble CD39 protein produced was evaluated using Cell Titer Glo™ (Promega, reference G7571) that allows assessment of ATP hydrolysis through use of a reagent that generates a luminescent signal proportional to the amount of ATP present. In this way, inhibition of the soluble-CD39-meidatd ATP hydrolysis can be assessed. Briefly, dose ranges of anti-CD39 antibodies from 100 μg/ml to 6×10^−3 μg/ml were incubated with 400 ng/ml of soluble recombinant human CD39 protein having the amino acid sequence described in the Methods section (SEQ ID NO: 45), for 1 h at 37° C. 20 μM ATP was added to the plates for 30 additional minutes at 37° C. before addition of CTG (Cell Titer Glo) reagent. Emitted light was quantified using an Enspire™ luminometer after a short incubation period of 5 min in the dark. Anti-CD39 antibody efficacy was determined by comparing emitted light in presence of antibody with ATP alone (maximal light emission) and ATP together with soluble CD39 protein (minimal light emission).

Row | inhibition of the enzymatic activity of soluble CD39 protein [3] | Molecule | type of inhibition of NTPDases [1] | binding to mutant 11 of CD39 ([2]; mutant 11: N371K, L372K, E375A, K376G, V377A, insertion 377V) | binding to any other mutant of the 20 CD39 mutants ([2]; remaining mutants of Table 1)
1 | – | CCN(CC)c1ncnc2c1ncn2[C@@H]1O[C@H](COP(=O)(O)OP(=O)(O)C(Br)(Br)P(=O)(O)O)[C@@H](O)[C@H]1O [ARL67156] | weak competitive inhibitor | – | –
2 | showed inhibition | I-399: anti-CD39 antibody, VH SEQ ID NO: 30, VL SEQ ID NO: 31 (antibody, listed as Mus musculus, V domains shown) VH: PVQLQQPGAEVVMPGASVKLSCKASGYTFTSFWMNWMRQRPGQGLEWIGEIDPSDFYTNSNQRFKGKATLTVDKSSSTAYMQLSSLTSEDSAVYFCARGDFGWYFDVWGTGTSVTVSS VL: EIVLTQSPTTMTSSPGEKITFTCSASSSINSNYLHWYQQKPGFSPKLLIYRTSNLASGVPTRFSGSGSGTSYSLTIGTMEAEDVATYYCQQGSSLPRTFGGGTKLEIK | – | loss of binding | without loss of binding

— US11578136B2, “Compositions and methods for treating cancer” (INNATE PHARMA, priority 2017, dated 2023)
